# Assay results reported in article PMC4283134, “Nup98 FG domains from diverse species spontaneously phase-separate into particles with nuclear pore-like permselectivity” (eLife, 2015).
# T1: Saccharomyces cerevisiae Importin β (Kap95p) (S. cerevisiae, UniProt Q06142 1-861)
# T1 sequence (looked up): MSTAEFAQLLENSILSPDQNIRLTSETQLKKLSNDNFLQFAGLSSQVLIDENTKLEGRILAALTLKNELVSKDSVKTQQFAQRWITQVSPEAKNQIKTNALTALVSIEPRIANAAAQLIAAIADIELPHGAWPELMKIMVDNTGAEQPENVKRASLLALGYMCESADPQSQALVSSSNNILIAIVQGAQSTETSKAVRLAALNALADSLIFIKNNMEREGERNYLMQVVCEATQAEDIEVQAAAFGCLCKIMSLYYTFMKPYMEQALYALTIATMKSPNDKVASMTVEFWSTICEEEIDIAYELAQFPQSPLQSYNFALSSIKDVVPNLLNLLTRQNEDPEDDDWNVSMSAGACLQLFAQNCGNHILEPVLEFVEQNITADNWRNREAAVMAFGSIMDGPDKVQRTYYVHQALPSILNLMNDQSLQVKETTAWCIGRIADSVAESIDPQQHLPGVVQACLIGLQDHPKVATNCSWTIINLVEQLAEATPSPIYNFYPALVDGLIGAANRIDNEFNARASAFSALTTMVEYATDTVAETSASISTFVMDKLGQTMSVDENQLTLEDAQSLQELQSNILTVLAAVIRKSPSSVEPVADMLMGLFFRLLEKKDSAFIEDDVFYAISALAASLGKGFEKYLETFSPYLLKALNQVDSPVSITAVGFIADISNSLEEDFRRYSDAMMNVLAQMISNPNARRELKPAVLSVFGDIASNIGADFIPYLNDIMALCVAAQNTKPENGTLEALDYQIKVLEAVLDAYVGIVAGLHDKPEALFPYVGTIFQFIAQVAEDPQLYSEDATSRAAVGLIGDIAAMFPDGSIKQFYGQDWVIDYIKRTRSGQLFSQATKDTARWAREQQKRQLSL
# B1: Atto488-labelled IBB domain of S. cerevisiae Srp1p (domain or fragment)
# chain: DNGTDSSTSKFVPEYRRTNFKNKGRFSADELRRRRDTQQVELRKAKRDEALAKRRNFIPPTDC
# modifications: also: Atto488 label, position not given here
# notes: IBB domain of Srp1p (importin α), S. cerevisiae, residues 2-63; C-terminal cysteine of the construct; The label probably sits on the C-terminal cysteine; also called ScIBB; IBB-Atto488; source: E. coli (BLR or NEB Express), purified (native Ni(II) chelate chromatography, tag removed); not shown: His14, N-terminal, cleaved; ZZ, N-terminal, cleaved; brNEDD8, N-terminal, cleaved
# Biological target: T1, Saccharomyces cerevisiae Importin β …
# Experiment: NTR⋅cargo complex formed from purified proteins, followed by the fluorescent cargo's entry into FG particles (confocal microscopy); 1 µM complex (referring to substrate monomers) added to FG particles; no separate test of complex formation is described
# Details: both partners purified
binder,measurement,value
B1,binding result,binds
